Test results reported in US20080292641A1 (MORPHOTEK, published 2008).

Molecular target: TT (tetanus toxin / tetanus toxoid) (UniProt P04958 2-1315)
Experiment: ELISA of hybridoma clones

Chain of TT (tetanus toxin / tetanus toxoid) (P04958 2-457 limits assumed, chain 1 of 2): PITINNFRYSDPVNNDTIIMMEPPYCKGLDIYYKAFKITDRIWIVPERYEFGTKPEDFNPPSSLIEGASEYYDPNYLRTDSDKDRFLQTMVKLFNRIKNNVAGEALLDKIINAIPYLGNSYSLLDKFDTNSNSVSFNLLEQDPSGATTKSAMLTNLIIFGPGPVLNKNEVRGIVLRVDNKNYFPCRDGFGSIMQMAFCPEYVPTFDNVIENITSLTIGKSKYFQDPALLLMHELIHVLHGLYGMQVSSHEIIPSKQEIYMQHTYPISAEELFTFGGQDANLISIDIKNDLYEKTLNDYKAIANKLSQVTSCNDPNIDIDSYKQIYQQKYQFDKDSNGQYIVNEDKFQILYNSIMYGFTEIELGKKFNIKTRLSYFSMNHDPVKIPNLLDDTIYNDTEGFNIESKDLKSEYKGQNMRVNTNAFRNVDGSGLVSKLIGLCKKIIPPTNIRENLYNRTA
Chain of TT (tetanus toxin / tetanus toxoid) (P04958 458-1315 limits assumed, chain 2 of 2): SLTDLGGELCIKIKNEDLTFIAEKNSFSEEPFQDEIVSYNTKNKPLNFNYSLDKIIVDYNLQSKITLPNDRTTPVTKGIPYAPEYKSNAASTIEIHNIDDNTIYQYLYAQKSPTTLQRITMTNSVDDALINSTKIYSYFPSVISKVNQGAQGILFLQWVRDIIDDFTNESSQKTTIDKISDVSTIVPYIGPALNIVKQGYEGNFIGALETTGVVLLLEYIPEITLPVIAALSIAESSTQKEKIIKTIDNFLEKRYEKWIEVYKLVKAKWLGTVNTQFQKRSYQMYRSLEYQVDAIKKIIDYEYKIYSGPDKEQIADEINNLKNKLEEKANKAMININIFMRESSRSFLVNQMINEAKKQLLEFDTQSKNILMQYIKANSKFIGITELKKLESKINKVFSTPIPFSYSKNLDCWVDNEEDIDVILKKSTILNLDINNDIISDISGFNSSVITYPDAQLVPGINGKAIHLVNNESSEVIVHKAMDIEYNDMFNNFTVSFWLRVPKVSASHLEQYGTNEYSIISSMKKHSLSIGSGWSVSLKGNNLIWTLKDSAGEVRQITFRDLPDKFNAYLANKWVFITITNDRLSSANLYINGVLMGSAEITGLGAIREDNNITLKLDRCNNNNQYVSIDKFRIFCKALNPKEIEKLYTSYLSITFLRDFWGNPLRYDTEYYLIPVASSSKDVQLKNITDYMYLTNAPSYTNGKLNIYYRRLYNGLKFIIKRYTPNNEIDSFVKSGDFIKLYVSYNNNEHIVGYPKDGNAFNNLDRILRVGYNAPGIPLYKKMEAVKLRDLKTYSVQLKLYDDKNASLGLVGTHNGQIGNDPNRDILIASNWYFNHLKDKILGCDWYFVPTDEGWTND

| Binder | binding result |
| --- | --- |
| anti-GM-CSF human IgG1 monoclonal antibody G9 (antibody, V domains shown, Fully human IgG1 kappa made by a hybridoma from B cells of a PAP patient; also called 10G9; 10G9.1) VH: EVQLVESGGGLVQPGGSLRLSCAASGFTFSRHWMHWLRQVPGKGPVWVSRINGAGTSITYADSVRGRFTISRDNANNTLFLQMNSLRADDTALYFCARANSVWFRGLFDYWGQGTPVTVSS VL: EIVLTQSPVTLSVSPGERVTLSCRASQSVSTNLAWYQQKLGQGPRLLIYGASTRATDIPARFSGSGSETEFTLTISSLQSEDFAVYYCQQYDKWPDTFGQGTKLEIKR | no binding |
| anti-GM-CSF human IgG1 monoclonal antibody E10 (antibody, V domains shown, Fully human IgG1 kappa made by a hybridoma from B cells of a PAP patient; also called 4E10; E10.20) VH: QVQLEESGGGVVQPGRSLRLSCAASGFTFTNYGMHWVRQAPGKGLEWLALISYDGNRQYYADSVKGRFTVSRDNPNNTLHLEMKSLRAEDSAIYYCARGAGVLLWFGDLSWFDPWGQGTLVTVSS VL: DIQMTQSPSNLSASVGDRVTITCRASQNINTWLAWYQHKPGKPPKLRIYQASTLESGVPSRFSGSGSGTIFTLTISSLQPDDFGTYYCQQNNSYPYTFGQGTKLEINR | no binding |
